Columns and labels:
[1] = target: T1, GST-human NOGO-A56 (human); experiment: SPR (Biacore), GST-human NOGO-A56 amine-coupled to CM5, antibody flowed over, 37 C
T1 construct: Expressed in E. coli BL21 from pGEX-6P1 and purified on glutathione-sepharose; the GST tag is part of the protein in the assays; also called GST-Nogo-A 5+6; GST Nogo-A 5 + 6
Experimental: (§1) GST-human NOGO-A56 was immobilised to a CM5 chip by primary amine coupling using the Biacore Wizard program designed for targeted immobilisation levels. The CM5 sensor surface was activated by passing a solution of 50 mM N-hydroxy-succinimide (NHS) and 200 mM N-ethyl-N′-dimethylaminopropyl carbonide (EDC). Then GST-human NOGO-A56 in sodium acetate buffer, pH5.0 or pH 4.5, was passed over the chip and immobilised. After immobilisation was complete any still activated esters were blocked by an injection of 1M ethanolamine hydrochloride, pH8.5.
(§2) The anti-NOGO mAbs were diluted down in HBS-EP (10 mM HEPES, pH 7.4, 150 mM NaCl, 3 mM EDTA, and 0.005% P-20 surfactant) for the BIAcore 3000 or HBS-EP+ (10 mM HEPES, pH 7.4, 150 mM NaCl, 3 mM EDTA, and 0.05% P-20 surfactant) in the case of the T100 and binding studies were carried out at range of defined antibody concentrations. All runs were referenced against a blanked sensor surface (one that had been activated and blocked as described earlier but had no addition of ligand). Analysis of binding was carried out using the BIAevaluation kinetic analysis software version 4.1 for the BIAcore 3000 and T100 kinetic analysis software version 1.0. […] Unless otherwise stated, the BIAcore experiments were performed at 25° C.

[2] = target: T2, Cynomolgus monkey NOGO (A56) plus GST tag (cynomolgus monkey); experiment: direct ELISA on GST-NOGO-A56 from cynomolgus, Abs490
T2 construct: also called cynomolgus Nogo-A; GST-NOGO-A56 from cynomolgus

[3] = target: T1, GST-human NOGO-A56; experiment: SPR (Biacore), GST-human NOGO-A56 amine-coupled to CM5, antibody flowed over, 25 C
Experimental: as §1, §2

[4] = target: T1, GST-human NOGO-A56; experiment: reverse format ELISA: antibody captured on anti-human IgG, GST-Nogo-A 5+6 detected with anti-GST-HRP; the x axis is the antibody concentration
[5] = target: T1, GST-human NOGO-A56; experiment: SPR (Biacore), GST-human NOGO-A56 amine-coupled to CM5, antibody flowed over, 25 C; remark: listed apart in the source
Experimental: as §1, §2

[6] = target: T3, Marmoset NOGO (A56) plus GST tag (marmoset); experiment: direct ELISA on GST-NOGO-A56 from marmoset, Abs490
T3 construct: also called GST-NOGO-A56 from marmoset

[7] = target: T1, GST-human NOGO-A56; experiment: SPR (Biacore), GST-human NOGO-A56 amine-coupled to CM5, antibody flowed over, 25 C; remark: listed apart in the source
Experimental: as §1, §2

[8] = target: T4, Squirrel monkey NOGO (A56) plus GST tag (squirrel monkey); experiment: direct ELISA on GST-NOGO-A56 from squirrel monkey, Abs490
T4 construct: also called GST-NOGO-A56 from squirrel monkey

[9] = target: T5, Rat NOGO (A56) plus GST tag (rat); experiment: direct ELISA on GST-NOGO-A56 from rat, Abs490
T5 construct: also called GST-NOGO-A56 from rat

[10] = target: T1, GST-human NOGO-A56; experiment: direct ELISA, GST-human NOGO-A56 coated at 1.0 mcg/ml, purified antibody, OD490
Experimental: (§3) Wells were rinsed once with TBS+0.05% Tween (TBST) then incubated with 2% BSA in TBST to block non-specific binding sites at room temperature for 1 hour. Antibodies were diluted in TBST+2% BSA to 10 μg/ml and ½ dilutions made from this. Antibodies were added to wells in duplicate and incubated at room temperature for 1 hour. […] The wells were washed three times with TBST and then incubated with 100 μl OPD peroxidase substrate (Sigma) per well for 10 minutes. The colour reaction was stopped by the addition of 25 μl concentrated H₂SO₄. Optical density at 490 nm was measured using a plate reader. Background values read from wells with no antibody were subtracted.

[11] = target: T1, GST-human NOGO-A56; experiment: direct ELISA, GST-Nogo-A 5+6 coated at 1.0 mcg/ml, anti-human IgG-HRP, Abs490
Experimental: as §3

[12] = target: T1, GST-human NOGO-A56; experiment: SPR (Biacore T100), human Nogo-A amine-coupled to CM5, antibody 0.125-8 nM flowed over; mean
[13] = target: T1, GST-human NOGO-A56; experiment: direct ELISA, GST-human NOGO-A56 coated at 1.0 mcg/ml, purified antibody, OD490; remark: listed apart in the source
Experimental: as §3

[14] = target: T4, Squirrel monkey NOGO (A56) plus GST tag; experiment: SPR (Biacore T100), reverse format: antibody captured by Protein A, GST-NOGO-A56 flowed over; mean
Text: (§4) Protein A was immobilised on the surface at about 4000RUs and anti-Nogo-A antibodies were captured at approximately 300-400RUs. […] All the runs were done in duplicates. The values show the mean and standard deviation (in brackets) of 1-3 independent runs with each run done in duplicate and each data set analysed independently prior to calculation of the mean and standard deviation.

[15] = target: T2, Cynomolgus monkey NOGO (A56) plus GST …; experiment: as above
Text: as §4

[16] = target: T1, GST-human NOGO-A56; experiment: as above
Text: as §4

[17] = target: T3, Marmoset NOGO (A56) plus GST tag; experiment: as above
Text: as §4

[18] = target: T5, Rat NOGO (A56) plus GST tag; experiment: as above
Text: as §4

[19] = target: T4, Squirrel monkey NOGO (A56) plus GST tag; experiment: SPR (Biacore T100), Nogo-A orthologue amine-coupled to CM5, antibody 0.125-8 nM flowed over; mean
Text: (§5) Approximately 140-180RUs of the various Nogo-A orthologues were captured to the CM5 chip by primary amine coupling. […] The values show the mean and standard deviation (in brackets) of 1-2 independent runs carried out in duplicate with each data set independently analysed prior to calculation of the mean and standard deviation.

[20] = target: T2, Cynomolgus monkey NOGO (A56) plus GST …; experiment: as above
Text: as §5

[21] = target: T3, Marmoset NOGO (A56) plus GST tag; experiment: as above
Text: as §5

[22] = target: T5, Rat NOGO (A56) plus GST tag; experiment: as above
Text: as §5

[23] = target: T1, GST-human NOGO-A56; experiment: SPR (Biacore T100), reverse format: antibody captured by Protein A, GST Nogo-A 5+6 0.125-8 nM flowed over; mean (SD in brackets)
Text: Protein A was immobilised to approximately 4000RUs by primary amine and used to capture 200-300RUs of the sample antibodies. […] The values show the mean and standard deviation (in brackets) of three independent runs in duplicate. Each data set was independently analysed prior to the calculation of the mean and standard deviation.

T5 sequence (chain, as listed by the source limits assumed): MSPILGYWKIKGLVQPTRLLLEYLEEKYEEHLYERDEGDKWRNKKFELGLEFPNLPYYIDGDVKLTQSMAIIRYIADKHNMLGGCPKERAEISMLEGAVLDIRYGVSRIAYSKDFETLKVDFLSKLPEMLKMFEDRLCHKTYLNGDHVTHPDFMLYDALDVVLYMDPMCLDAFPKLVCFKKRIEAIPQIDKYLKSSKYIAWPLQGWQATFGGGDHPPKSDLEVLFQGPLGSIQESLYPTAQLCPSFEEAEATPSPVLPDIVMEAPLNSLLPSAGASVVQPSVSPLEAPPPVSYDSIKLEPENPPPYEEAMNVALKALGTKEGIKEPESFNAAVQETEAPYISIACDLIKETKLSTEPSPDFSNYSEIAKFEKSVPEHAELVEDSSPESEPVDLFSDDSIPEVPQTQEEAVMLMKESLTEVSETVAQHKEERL
T2 sequence (chain, as listed by the source limits assumed): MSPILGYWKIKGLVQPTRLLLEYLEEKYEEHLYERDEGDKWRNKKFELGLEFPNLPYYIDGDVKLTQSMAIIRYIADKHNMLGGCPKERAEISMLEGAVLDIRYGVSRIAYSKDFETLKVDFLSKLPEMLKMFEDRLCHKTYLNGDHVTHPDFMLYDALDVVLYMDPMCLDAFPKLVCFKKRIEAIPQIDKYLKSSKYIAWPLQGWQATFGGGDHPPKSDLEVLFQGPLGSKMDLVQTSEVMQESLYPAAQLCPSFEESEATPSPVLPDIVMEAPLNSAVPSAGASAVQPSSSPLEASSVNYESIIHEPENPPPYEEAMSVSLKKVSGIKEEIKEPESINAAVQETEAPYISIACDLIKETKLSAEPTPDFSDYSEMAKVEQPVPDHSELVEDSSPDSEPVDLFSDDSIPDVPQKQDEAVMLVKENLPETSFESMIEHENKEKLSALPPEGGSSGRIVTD
T3 sequence (chain, as listed by the source limits assumed): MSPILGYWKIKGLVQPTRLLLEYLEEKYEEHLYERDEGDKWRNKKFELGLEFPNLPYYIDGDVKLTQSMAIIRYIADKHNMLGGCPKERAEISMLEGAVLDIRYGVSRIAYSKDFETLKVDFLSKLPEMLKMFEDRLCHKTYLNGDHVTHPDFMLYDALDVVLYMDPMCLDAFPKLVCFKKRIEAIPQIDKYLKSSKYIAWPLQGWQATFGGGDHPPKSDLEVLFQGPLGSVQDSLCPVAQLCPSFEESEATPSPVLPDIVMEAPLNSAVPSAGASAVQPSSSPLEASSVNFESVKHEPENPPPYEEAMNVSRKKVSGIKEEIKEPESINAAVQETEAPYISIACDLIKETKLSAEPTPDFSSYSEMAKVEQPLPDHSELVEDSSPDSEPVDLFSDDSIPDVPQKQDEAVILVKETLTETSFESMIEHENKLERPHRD
T1 sequence (chain, as listed by the source limits assumed): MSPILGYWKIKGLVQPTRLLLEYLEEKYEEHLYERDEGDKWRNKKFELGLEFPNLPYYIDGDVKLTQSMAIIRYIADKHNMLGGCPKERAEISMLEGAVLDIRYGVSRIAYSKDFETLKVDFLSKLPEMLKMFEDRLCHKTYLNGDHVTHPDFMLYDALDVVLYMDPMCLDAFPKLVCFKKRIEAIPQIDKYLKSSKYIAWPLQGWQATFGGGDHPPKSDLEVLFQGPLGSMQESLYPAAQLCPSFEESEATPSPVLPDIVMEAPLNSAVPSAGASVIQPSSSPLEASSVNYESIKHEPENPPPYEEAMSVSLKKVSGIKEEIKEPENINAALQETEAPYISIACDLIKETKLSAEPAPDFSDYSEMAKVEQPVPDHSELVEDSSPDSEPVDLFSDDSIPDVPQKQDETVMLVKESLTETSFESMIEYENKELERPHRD
T4 sequence (chain, as listed by the source limits assumed): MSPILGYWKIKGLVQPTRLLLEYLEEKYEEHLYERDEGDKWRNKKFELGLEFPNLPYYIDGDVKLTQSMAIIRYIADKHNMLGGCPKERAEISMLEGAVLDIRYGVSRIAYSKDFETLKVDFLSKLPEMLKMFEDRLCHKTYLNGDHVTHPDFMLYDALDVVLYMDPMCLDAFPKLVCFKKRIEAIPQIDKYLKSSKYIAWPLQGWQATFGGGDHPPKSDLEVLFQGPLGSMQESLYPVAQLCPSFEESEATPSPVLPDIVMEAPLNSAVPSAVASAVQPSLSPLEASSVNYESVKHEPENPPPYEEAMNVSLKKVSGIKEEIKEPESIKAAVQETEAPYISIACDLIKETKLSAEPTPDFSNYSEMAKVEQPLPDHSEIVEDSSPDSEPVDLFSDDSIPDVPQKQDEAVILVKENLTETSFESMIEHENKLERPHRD

B1: H28L16 (antibody, human IgG1, kappa)
heavy: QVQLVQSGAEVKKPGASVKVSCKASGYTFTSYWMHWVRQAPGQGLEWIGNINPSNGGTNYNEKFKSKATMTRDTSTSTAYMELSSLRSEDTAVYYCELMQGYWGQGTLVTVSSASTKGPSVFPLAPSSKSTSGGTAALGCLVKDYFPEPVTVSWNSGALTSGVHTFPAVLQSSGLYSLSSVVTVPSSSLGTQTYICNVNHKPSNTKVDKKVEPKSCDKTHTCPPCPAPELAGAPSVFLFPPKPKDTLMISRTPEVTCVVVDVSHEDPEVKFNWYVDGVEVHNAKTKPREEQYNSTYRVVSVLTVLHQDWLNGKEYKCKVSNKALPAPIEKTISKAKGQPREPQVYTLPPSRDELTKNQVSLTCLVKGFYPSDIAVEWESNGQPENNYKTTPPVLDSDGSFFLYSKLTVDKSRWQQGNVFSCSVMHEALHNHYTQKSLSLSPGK
light: DIVMTQSPLSNPVTLGQPVSISCRSSKSLLYKDGKTYLNWFLQRPGQSPQLLIYLMSTRASGVPDRFSGGGSGTDFTLKISRVEAEDVGVYYCQQLVEYPLTFGQGTKLEIKRTVAAPSVFIFPPSDEQLKSGTASVVCLLNNFYPREAKVQWKVDNALQSGNSQESVTEQDSKDSTYSLSSTLTLSKADYEKHKVYACEVTHQGLSSPVTKSFNRGEC
notes: IgG1 (L235A, G237A) / kappa; CAMPATH-1H signal (1-19) left out; also called H28FL L16FL; NOGO H28L16
[1]
  Kd: 678 pM
  koff: 0.00524 s⁻¹
  kon: 7.73e+06 M⁻¹ s⁻¹
[2]
  EC50 (read off the curve): ~0.05 µg/mL
[3]
  Kd: 296 pM
  koff: 0.00214 s⁻¹
  kon: 7.25e+06 M⁻¹ s⁻¹
[4]
  EC50 (read off the curve): ~0.06 µg/mL
[5]
  Kd: 280 pM
  koff: 0.00195 s⁻¹
  kon: 6.89e+06 M⁻¹ s⁻¹
[6]
  EC50 (read off the curve): ~0.04 µg/mL
[7]
  Kd: 610 pM
  koff: 0.00264 s⁻¹
  kon: 4.33e+06 M⁻¹ s⁻¹
[8]
  EC50 (read off the curve): ~0.05 µg/mL
[9]
  EC50 (read off the curve): ~0.05 µg/mL
[10]
  EC50 (read off the curve): ~0.08 µg/mL
[11]
  EC50 (read off the curve): ~0.03 µg/mL
[12]
  Kd: 640 pM
  kon: 6.97e+06 M⁻¹ s⁻¹
[13]
  EC50 (read off the curve): ~0.06 µg/mL
[14]
  Kd: 6860 pM
[15]
  Kd: 3410 pM
[16]
  Kd: 400 pM
[17]
  Kd: 4890 pM
[18]
  Kd: 1760 pM
[19]
  Kd: 610 pM
[20]
  Kd: 670 pM
[21]
  Kd: 626 pM
[22]
  Kd: 330 pM
[23]
  Kd: 340 pM

B2: HcLc (chimera of 2A10: murine 2A10 VH and VL with human IgG constant regions) (antibody, V domains shown)
VH: QVQLQQPGTELVKPGASVKLSCKASGYTFTSYWMHWVKQRPGQGLEWIGNINPSNGGTNYNEKFKSKATLTVDKSSSTAYMQLSSLTSEDSAVYYCELGQGYWGQGTLVTVSS
VL: DIVITQDELSNPVTSGESVSISCRSSKSLLYKDGKTYLNWFLQRPGQSPQLLIYLMSTRASGVSDRFSGSGSGTDFTLEISRVKAEDVGVYYCQQLVEYPLTFGAGTKLELKR
notes: also called chimeric antibody; chimeric form of the parental antibody
[1]
  Kd: 1460 pM
  koff: 0.00774 s⁻¹
  kon: 5.08e+06 M⁻¹ s⁻¹
[2]
  EC50 (read off the curve): ~0.1 µg/mL
[3]
  Kd: 779 pM
  koff: 0.00249 s⁻¹
  kon: 3.19e+06 M⁻¹ s⁻¹
[4]
  EC50 (read off the curve): ~0.1 µg/mL
[5]
  Kd: 740 pM
  koff: 0.00233 s⁻¹
  kon: 3.17e+06 M⁻¹ s⁻¹
[6]
  EC50 (read off the curve): ~0.09 µg/mL
[7]
  Kd: 1180 pM
  koff: 0.00313 s⁻¹
  kon: 2.66e+06 M⁻¹ s⁻¹
[8]
  EC50 (read off the curve): ~0.07 µg/mL
[9]
  EC50 (read off the curve): ~0.1 µg/mL
[10]
  EC50 (read off the curve): ~0.09 µg/mL
[11]
  EC50 (read off the curve): ~0.08 µg/mL
[12]
  Kd: 1860 pM
[13]
  EC50 (read off the curve): ~0.06 µg/mL
[14]
  Kd: 7450 pM
[15]
  Kd: 4660 pM
[16]
  Kd: 540 pM
[17]
  Kd: 4510 pM
[18]
  Kd: 2010 pM
[19]
  Kd: 1540 pM
[20]
  Kd: 1680 pM
[21]
  Kd: 1420 pM
[22]
  Kd: 1120 pM
[23]
  Kd: 410 pM

Source: US20130287781A1 (GlaxoSmithKline, published 2013)
